This is an account of results in paper PMC8562343.

This assay addresses Transportin-1 (TNPO1) (UniProt Q92973). Description: ITC; MicroCal VP-ITC, 28 injections of 8 µl at 25°C; 50 mM Tris-HCl pH 7.5, 150 mM NaCl, 5 mM TCEP, 0.04% NaN3; standard one-site model; which protein was in the syringe is not given. (In general: Isothermal titration calorimetry measures the heat released or taken up as one component is titrated into another.)
UniProt Q92973, sequence (Q92973 whole entry): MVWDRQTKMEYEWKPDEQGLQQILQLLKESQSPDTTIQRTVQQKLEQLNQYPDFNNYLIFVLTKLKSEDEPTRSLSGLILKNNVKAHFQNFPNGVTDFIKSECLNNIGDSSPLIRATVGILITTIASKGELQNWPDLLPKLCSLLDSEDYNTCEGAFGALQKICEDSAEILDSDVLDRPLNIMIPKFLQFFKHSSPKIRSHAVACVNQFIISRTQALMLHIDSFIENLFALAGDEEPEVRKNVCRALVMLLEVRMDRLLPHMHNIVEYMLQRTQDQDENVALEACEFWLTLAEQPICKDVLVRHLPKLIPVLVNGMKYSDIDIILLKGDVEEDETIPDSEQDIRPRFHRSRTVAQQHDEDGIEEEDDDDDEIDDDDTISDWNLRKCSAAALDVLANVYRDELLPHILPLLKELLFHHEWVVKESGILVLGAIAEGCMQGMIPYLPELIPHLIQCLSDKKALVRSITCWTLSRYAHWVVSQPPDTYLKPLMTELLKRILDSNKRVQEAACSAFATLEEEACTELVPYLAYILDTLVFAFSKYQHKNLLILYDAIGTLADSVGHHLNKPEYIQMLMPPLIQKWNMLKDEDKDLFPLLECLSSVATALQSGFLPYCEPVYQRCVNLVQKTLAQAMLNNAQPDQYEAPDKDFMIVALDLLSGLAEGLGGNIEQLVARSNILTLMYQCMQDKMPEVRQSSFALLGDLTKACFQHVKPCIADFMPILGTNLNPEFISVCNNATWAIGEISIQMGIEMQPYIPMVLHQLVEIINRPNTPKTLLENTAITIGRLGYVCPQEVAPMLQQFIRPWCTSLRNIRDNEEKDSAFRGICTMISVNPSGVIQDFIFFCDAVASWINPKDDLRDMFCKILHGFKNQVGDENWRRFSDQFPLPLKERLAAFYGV

For orientation: Kd means a measure of binding affinity in units of concentration. Consider “RG/RGG region of cold-inducible RNA-binding protein (CIRBP-RGG, amino acids 68-137) (from UniProt Q14011 68-137) (domain or fragment)”, for which the Kd is 0.124 µM.
